The text below walks through data of patent US9365620B2, “Methods for treating pain” (NoNO NC., priority 2008, dated 2016).

This experiment has as its target N-type calcium channels (Mus musculus, UniProt O55017). In kind it is cell-based, Swiss mice. Conditions: Tat-NR2B9c 100 μM, conotoxin 1 μM, FIG. 5A.

Consider “YGRKKRRQRRRKLSSIESDV [Tat-NR2B9c] (Synthetic peptide Tat-NR2B9c) [chimeric peptide of a standard tat peptide and …]”, for which the “additional inhibition of Ca^2+ current once N-channels are blocked by Omega conotoxin” value is given as “no additional inhibition”.
